Experimental data: article PMC10397247
Read-outs that look alike come from different tables or passages of the source. Values belong to the binder of their own block, whether it stands above or below them.

Columns and labels:
Assay in all cases: two-hybrid library CCNG1;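 note: natural log of median RNA to DNA barcode read ratio; higher means stronger binding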
[1] = target: T1, 4H496-bA
T1 chain: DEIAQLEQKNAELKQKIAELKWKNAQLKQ

[2] = target: T2, 4H342-bA
T2 chain: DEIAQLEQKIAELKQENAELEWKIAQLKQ

[3] = target: T3, 4H3632-bA
T3 chain: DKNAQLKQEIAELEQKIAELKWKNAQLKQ

[4] = target: T4, 4H3070-bA
T4 chain: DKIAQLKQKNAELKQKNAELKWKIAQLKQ

[5] = target: T5, 4H883-bA
T5 chain: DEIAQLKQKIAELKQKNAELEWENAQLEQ

[6] = target: T6, 4H626-bH
T6 chain: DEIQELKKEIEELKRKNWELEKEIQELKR

[7] = target: T7, 4H3277-bH
T7 chain: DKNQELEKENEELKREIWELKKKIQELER

[8] = target: T8, 4H3858-bH
T8 chain: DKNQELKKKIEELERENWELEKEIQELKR

[9] = target: T9, 4H3175-bH
T9 chain: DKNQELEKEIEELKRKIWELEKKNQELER

[10] = target: T10, 4H3628-bH
T10 chain: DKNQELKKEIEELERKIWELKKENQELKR

[11] = target: T11, 4H3162-bH
T11 chain: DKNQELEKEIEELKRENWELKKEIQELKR

[12] = target: T12, 4H3974-bH
T12 chain: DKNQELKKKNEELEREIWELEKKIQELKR

[13] = target: T13, 4H3926-bH
T13 chain: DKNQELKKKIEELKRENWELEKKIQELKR

[14] = target: T14, 4H850-bH
T14 chain: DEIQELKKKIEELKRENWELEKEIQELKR

[15] = target: T15, 4H1985-bH
T15 chain: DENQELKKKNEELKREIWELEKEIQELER

[16] = target: T16, 4H1544-bH
T16 chain: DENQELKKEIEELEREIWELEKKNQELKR

[17] = target: T17, 4H3298-bH
T17 chain: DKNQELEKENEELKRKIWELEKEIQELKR

[18] = target: T18, 4H3817-bH
T18 chain: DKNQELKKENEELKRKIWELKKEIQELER

[19] = target: T19, 4H591-bH
T19 chain: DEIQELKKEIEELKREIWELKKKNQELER

[20] = target: T20, 4H1710-bH
T20 chain: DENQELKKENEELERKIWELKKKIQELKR

[21] = target: T21, 4H906-bH
T21 chain: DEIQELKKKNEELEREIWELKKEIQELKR

[22] = target: T22, 4H3462-bH
T22 chain: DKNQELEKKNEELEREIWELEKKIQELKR

[23] = target: T23, 4H3497-bH
T23 chain: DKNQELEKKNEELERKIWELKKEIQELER

[24] = target: T24, 4H3613-bH
T24 chain: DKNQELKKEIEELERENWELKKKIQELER

[25] = target: T25, 4H570-bH
T25 chain: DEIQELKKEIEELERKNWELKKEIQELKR

[26] = target: T26, 4H1899-bH
T26 chain: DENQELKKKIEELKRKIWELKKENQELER

[27] = target: T27, 4H3907-bN
T27 chain: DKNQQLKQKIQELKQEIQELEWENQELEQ

[28] = target: T28, 4H470-bN
T28 chain: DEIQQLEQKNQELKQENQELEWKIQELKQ

[29] = target: T29, 4H3961-bN
T29 chain: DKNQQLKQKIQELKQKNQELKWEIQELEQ

[30] = target: T30, 4H344-bN
T30 chain: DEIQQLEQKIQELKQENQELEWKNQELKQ

[31] = target: T31, 4H363-bN
T31 chain: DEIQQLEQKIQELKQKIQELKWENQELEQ

- interaction score [1]: -1.47
- interaction score [2]: 1.46
- interaction score [3]: -1.37
- interaction score ([4]; mean of both orientations): -0.355
- interaction score [5]: 0.052
Binder: DKIAQLKQKNAELKQKNAELKWKIAQLKQ [4H3070-bA]

- interaction score [6]: -0.838
- interaction score [7]: 0.893
- interaction score [8]: 0.651
- interaction score [9]: -0.419
- interaction score [4]: 0.826
- interaction score [10]: -0.0215
- interaction score [11]: 0.879
- interaction score [12]: 0.61
- interaction score [13]: 0.243
- interaction score [14]: 1.29
- interaction score [15]: 0.533
- interaction score [16]: 0.599
- interaction score [17]: 0.51
- interaction score [18]: 0.913
- interaction score [19]: 1.2
- interaction score [20]: 0.154
- interaction score [21]: 0.0592
- interaction score [22]: 0.608
- interaction score [23]: 0.211
- interaction score [24]: 0.423
- interaction score [25]: 0.232
- interaction score [26]: 1.61
Binder: DENQELKKEIEELEREIWELEKKNQELKR [4H1544-bH]

- interaction score [27]: -2.07
- interaction score [28]: 0.132
- interaction score [29]: 0.044
- interaction score [30]: 0.297
- interaction score [31]: -2.06
Binder: DEIQQLEQKIQELKQENQELEWKNQELKQ [4H344-bN]
